Results from patent publication US20130143227A1 (University of Texas, published 2013).
Each block holds one binder with its values, some of them ahead of it.

Key:
[1] = target: T1, FLAG-LGR6 (human LGR6, predicted mature form aa25-967, N-terminal FLAG tag), expressed on HEK293 cells (human, UniProt Q9HBX8 26-967); assay: whole-cell fluorescence competition binding, displacement of mRSPO1-Fc (~5 nM) from HEK293 cells expressing FLAG-LGR6
T1 construct: Residues 25-967 are counted on NP-001017403
T1 sequence: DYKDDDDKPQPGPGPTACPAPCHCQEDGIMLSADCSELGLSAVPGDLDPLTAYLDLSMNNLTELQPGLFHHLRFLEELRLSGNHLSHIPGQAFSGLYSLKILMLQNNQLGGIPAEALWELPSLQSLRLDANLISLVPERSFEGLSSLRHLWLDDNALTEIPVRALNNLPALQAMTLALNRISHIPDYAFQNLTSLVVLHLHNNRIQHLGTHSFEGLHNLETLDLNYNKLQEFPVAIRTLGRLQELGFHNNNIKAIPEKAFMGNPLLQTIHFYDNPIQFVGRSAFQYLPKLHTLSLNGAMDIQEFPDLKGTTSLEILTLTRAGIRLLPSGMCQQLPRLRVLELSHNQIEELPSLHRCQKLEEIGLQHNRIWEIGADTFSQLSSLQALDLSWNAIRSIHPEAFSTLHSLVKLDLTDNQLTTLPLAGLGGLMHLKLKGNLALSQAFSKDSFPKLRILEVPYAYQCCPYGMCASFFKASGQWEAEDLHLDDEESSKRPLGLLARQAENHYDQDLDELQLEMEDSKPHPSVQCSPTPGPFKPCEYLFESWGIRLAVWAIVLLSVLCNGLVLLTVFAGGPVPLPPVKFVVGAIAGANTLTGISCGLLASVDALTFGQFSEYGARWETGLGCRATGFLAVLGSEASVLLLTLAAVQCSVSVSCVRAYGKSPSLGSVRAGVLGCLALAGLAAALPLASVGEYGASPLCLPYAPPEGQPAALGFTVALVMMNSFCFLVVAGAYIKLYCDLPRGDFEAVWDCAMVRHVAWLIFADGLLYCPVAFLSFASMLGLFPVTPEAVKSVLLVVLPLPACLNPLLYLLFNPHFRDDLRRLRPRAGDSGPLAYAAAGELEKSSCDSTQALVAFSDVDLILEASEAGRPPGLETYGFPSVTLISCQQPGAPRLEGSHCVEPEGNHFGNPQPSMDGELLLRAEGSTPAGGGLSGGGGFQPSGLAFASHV
Experimental: (§1) A fluorescence-based whole-cell competition binding assay was developed to determine whether purified, recombinant RSP01-4 could compete with mRSPO1-Fc for binding to LGR4-6. HEK293 cells stably expressing Myc-LGR4, Myc-LGR5, or FLAG-LGR6 were seeded into poly-D-lysine-coated 96-well black/clear bottom plates (Becton Dickinson) at ˜60,000 cells/well. After overnight culturing, the plates were chilled on ice for 5 min, media were removed from each well, and the cells were washed twice with cold PBS. The recombinant RSPOs under investigation were diluted in 3-fold serial dilutions in cold OPTI-MEM®+0.5% BSA and added onto the cells at 50 μl/well, followed immediately by the addition of equal volume of mRSPO1-Fc diluted by 1:100 in the same buffer. The cells were the incubated for 3.5 hrs at 4° C. with gentle agitation, followed by three quick washes with cold PBS. The cells were then fixed in 4% paraformaldehyde/PBS for 15 min at room temperature and washed 3× with PBS. The cells were further incubated with Alexa Fluor® 647-labeled goat anti-mouse IgG (H+L) (Invitrogen, diluted by 1:200) in OPTI-MEM®+0.5% BSA for 1 hr at room temperature. The cells were washed thrice with PBS and fluorescence intensity was measured using a Tecan M1000 plate reader with excitation at 630 nm and emission at 670 nm. All experiments were performed at least twice with quadruplicate replicates in each experiment. HEK293 cells stably expressing Myc-LGR4 (shown in FIG. 4B), Myc-LGR5 (shown in FIG. 4C), or FLAG-LGR6 (shown in FIG. 4D) were incubated with mRSPO1Fc at ˜5 nM plus serial dilutions of purified recombinant RSPO1-4 for 3-4 hrs at 4° C. Binding of mRSPO1-Fc was detected with Alexa Fluor® 647-labeled anti-mouse IgG. Maximum specific binding is defined by the difference between the data of with and without mRSPO1-Fc which is approximately 50% of total binding in general. All error bars are S.E.M. (n=4). […] As shown in FIGS. 4B-D, RSPO1-4 were able to completely displace the binding of mRSPO1-Fc to LGR4-6 with IC50's in the nM range, the one exception was the μM IC50's for RSPO3 (SEQ ID NO:46; SEQ ID NO:47) and RSPO4 (SEQ ID NO:48; SEQ ID NO:49) binding to LGR4.

[2] = target: T1, FLAG-LGR6 (human LGR6, predicted mature …); assay: cell-based or functional assay
[3] = target: T2, Myc-LGR4 (mouse LGR4, predicted mature form aa23-951, N-terminal Myc tag), expressed on HEK293 cells (mouse, UniProt A2ARI4 23-951); assay: cell-based or functional assay
T2 sequence: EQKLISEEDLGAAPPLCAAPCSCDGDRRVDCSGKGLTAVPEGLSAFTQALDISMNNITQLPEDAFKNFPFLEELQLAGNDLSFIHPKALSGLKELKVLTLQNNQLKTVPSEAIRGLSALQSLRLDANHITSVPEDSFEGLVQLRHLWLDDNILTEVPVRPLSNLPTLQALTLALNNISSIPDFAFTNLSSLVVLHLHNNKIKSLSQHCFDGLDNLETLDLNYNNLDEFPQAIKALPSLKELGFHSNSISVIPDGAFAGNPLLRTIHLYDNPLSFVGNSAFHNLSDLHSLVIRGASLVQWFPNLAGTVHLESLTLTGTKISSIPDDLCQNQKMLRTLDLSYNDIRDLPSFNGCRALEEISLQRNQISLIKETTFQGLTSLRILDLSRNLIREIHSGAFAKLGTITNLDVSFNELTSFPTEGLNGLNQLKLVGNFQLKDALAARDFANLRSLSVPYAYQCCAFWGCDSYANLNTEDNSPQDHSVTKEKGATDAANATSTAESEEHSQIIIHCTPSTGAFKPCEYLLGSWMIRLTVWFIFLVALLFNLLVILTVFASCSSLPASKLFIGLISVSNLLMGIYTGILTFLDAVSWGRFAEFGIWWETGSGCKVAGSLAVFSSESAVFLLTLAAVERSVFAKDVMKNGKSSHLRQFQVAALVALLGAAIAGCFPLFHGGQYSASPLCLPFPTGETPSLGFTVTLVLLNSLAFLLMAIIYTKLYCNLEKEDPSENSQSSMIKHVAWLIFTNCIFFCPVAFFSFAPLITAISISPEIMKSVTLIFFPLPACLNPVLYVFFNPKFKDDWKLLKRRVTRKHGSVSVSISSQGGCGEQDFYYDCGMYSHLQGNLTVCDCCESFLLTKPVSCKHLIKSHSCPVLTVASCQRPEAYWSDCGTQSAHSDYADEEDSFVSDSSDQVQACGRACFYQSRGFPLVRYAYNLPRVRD

[4] = target: T1, FLAG-LGR6 (human LGR6, predicted mature …); assay: cell-based or functional assay; remark: listed apart in the source
[5] = target: T3, Myc-LGR5 (human LGR5, predicted mature form aa21-907, N-terminal Myc tag), expressed on HEK293 cells (human, UniProt O75473 22-907); assay: cell-based or functional assay
T3 sequence: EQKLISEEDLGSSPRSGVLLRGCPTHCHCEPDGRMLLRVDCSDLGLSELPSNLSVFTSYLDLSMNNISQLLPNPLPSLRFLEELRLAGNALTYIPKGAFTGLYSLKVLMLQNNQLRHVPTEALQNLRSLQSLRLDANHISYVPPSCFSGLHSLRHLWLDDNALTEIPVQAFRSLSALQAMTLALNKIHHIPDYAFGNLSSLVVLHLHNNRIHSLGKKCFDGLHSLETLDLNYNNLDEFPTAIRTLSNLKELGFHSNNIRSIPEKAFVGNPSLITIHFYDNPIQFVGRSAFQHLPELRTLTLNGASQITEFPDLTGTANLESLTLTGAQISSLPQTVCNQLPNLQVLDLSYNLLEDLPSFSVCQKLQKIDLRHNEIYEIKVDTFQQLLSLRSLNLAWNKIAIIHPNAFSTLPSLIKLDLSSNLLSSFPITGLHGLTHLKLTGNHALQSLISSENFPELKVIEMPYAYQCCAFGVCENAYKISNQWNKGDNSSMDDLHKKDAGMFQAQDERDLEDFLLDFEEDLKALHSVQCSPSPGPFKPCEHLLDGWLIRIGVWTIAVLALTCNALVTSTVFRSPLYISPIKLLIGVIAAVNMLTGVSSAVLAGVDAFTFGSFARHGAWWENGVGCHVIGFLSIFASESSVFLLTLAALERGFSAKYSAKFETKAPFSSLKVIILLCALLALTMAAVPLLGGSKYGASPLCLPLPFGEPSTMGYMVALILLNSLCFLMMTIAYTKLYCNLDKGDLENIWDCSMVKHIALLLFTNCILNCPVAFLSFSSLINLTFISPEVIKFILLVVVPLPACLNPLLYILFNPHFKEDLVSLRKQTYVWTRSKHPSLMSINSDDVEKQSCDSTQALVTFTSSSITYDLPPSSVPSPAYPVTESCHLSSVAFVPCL

[6] = target: T3, Myc-LGR5 (human LGR5, predicted mature …); assay: whole-cell fluorescence competition binding, displacement of mRSPO1-Fc (~5 nM) from HEK293 cells expressing Myc-LGR5
Experimental: as §1

[7] = target: T2, Myc-LGR4 (mouse LGR4, predicted mature …); assay: whole-cell fluorescence competition binding, displacement of mRSPO1-Fc (~5 nM) from HEK293 cells expressing Myc-LGR4
Experimental: as §1

B1: recombinant human RSPO2 (ligand, UniProt Q6UXX9 22-243, looked up)
chain: QGNRWRRSKRASYVSNPICKGCLSCSKDNGCSRCQQKLFFFLRREGMRQYGECLHSCPSGYYGHRAPDMNRCARCRIENCDSCFSKDFCTKCKVGFYLHRGRCFDECPDGFAPLEETMECVEGCEVGHWSEWGTCSRNNRTCGFKWGLETRTRQIVKKPVKDTILCPTIAESRRCKMTMRHCPGGKRTPKAKEKRNKKKKRKLIERAQEQHSVFLATDRANQ
notes: Bought from R&D Systems; also called R-spondin 2
IC50 [1]: 0.5 nM
fold change of EC50 against vector-transfected cells, β-catenin reporter [2]: 20 fold
maximum effect (Emax, fraction of vector control), β-catenin reporter [3]: 0.9 fraction of vector control
potency (EC50, nM), β-catenin reporter (Super 8x TOPFlash) with Wnt3a CM [3]: 0.0003 nM
maximum effect (Emax, fraction of vector control), β-catenin reporter [4]: 0.5 fraction of vector control
potency (EC50, nM), β-catenin reporter (Super 8x TOPFlash) with Wnt3a CM [4]: 0.01 nM
maximum effect (Emax, fraction of vector control), β-catenin reporter [5]: 1 fraction of vector control
potency (EC50, nM), β-catenin reporter (Super 8x TOPFlash) with Wnt3a CM [5]: 0.001 nM
IC50 [6]: 0.5 nM
IC50 [7]: 2.3 nM

B2: recombinant human RSPO1 (ligand, UniProt Q2MKA7 21-263, looked up)
chain: SRGIKGKRQRRISAEGSQACAKGCELCSEVNGCLKCSPKLFILLERNDIRQVGVCLPSCPPGYFDARNPDMNKCIKCKIEHCEACFSHNFCTKCKEGLYLHKGRCYPACPEGSSAANGTMECSSPAQCEMSEWSPWGPCSKKQQLCGFRRGSEERTRRVLHAPVGDHAACSDTKETRRCTVRRVPCPEGQKRRKGGQGRRENANRNLARKESKEAGAGSRRRKGQQQQQQQGTVGPLTSAGPA
notes: Bought from R&D Systems; also called R-spondin 1
IC50 [1]: 3.3 nM
fold change of EC50 against vector-transfected cells, β-catenin reporter [2]: 20 fold
potency (EC50, nM), β-catenin reporter (Super 8x TOPFlash) with Wnt3a CM [3]: 0.02 nM
potency (EC50, nM), β-catenin reporter (Super 8x TOPFlash) with Wnt3a CM [4]: 0.03 nM
potency (EC50, nM), β-catenin reporter (Super 8x TOPFlash) with Wnt3a CM [5]: 0.008 nM
IC50 [6]: 4 nM
IC50 [7]: 25 nM

Next, values leading:

IC50 [1]: 7.7 nM
potency (EC50, nM), β-catenin reporter (Super 8x TOPFlash) with Wnt3a CM [3]: 0.09 nM
potency (EC50, nM), β-catenin reporter (Super 8x TOPFlash) with Wnt3a CM [5]: 0.4 nM
IC50 [6]: 11 nM
IC50 [7]: 228 nM
B3: recombinant human RSPO4 (ligand)
chain: LNRRKKQVGTGLGGNCTGCIICSEENGCSTCQQRLFLFIRREGIRQYGKCLHDCPPGYFGIRGQEVNRCKKCGATCESCFSQDFCIRCKRQFYLYKGKCLPTCPPGTLAHQNTRECQGECELGPWGGWSPCTHNGKTCGSAWGLESRVREAGRAGHEEAATCQVLSESRKCPIQRPCPGERSPGQKKGRKDRRPRKDRKLDRRLDVRPRQPGLQP
notes: Bought from R&D Systems; also called R-spondin 4

IC50 [1]: 1.3 nM
maximum effect (Emax, fraction of vector control), β-catenin reporter [3]: 0.9 fraction of vector control
potency (EC50, nM), β-catenin reporter (Super 8x TOPFlash) with Wnt3a CM [3]: 0.02 nM
maximum effect (Emax, fraction of vector control), β-catenin reporter [4]: 0.5 fraction of vector control
potency (EC50, nM), β-catenin reporter (Super 8x TOPFlash) with Wnt3a CM [4]: 0.05 nM
maximum effect (Emax, fraction of vector control), β-catenin reporter [5]: 1.1 fraction of vector control
potency (EC50, nM), β-catenin reporter (Super 8x TOPFlash) with Wnt3a CM [5]: 0.01 nM
IC50 [6]: 2.1 nM
IC50 [7]: 126 nM
B4: recombinant human RSPO3 (ligand)
chain: QNASRGRRQRRMHPNVSQGCQGGCATCSDYNGCLSCKPRLFFALERIGMKQIGVCLSSCPSGYYGTRYPDINKCTKCKADCDTCFNKNFCTKCKSGFYLHLGKCLDNCPEGLEANNHTMECVSIVHCEVSEWNPWSPCTKKGKTCGFKRGTETRVREIIQHPSAKGNLCPPTNETRKCTVQRKKCQKGERGKKGRERKRKKPNKGESKEAIPDSKSLESSKEIPEQRENKQQQKKRKVQDKQKSVSVSTVH
notes: Bought from R&D Systems; also called R-spondin 3
